From patent publication US20100272737A1 (AGENCY FOR SCIENCE TECHNOLOGY AND RESEARCH, published 2010)

Molecular target: T1, Flag-tagged Cavβ3-subunit (rat, UniProt P54287 1-484)
T1 construct: whole, on cells; Flag-tagged in co-immunoprecipitation, pull-down and immunofluorescence; also called Flag-Cavβ3; N-Flag Cavβ3-subunits
Assay: dissociation of β3 from GST-AID by peptide, Western blot of the supernatant
Procedure: B, BARP displaces the Caᵥβ3-subunit from the AID. In vivo expressed Caᵥβ3-subunits were pulled-down using a GST-AID fusion protein and the complex then incubated with increasing amounts of AID or BARP Domain I peptide. The Caᵥβ3-subunit displaced from the GST-AID was monitored by Western blot.
Preparation of cell homogenates lysed into a buffer containing (50 mM Tris-HCl (pH 7.5), 100 mM NaCl, 1 mM MgCl₂, 0.5% Triton) supplemented with proteases inhibitors, co-immunoprecipitation and Western blot analysis using the generated antibodies together with monoclonal anti-FLAG(M2; Sigma), rabbit anti-GST (Santa Cruz Biotechnology), rabbit Caᵥ1.2 (Chemicon International), Caᵥ2.1(Alomone labs), Caᵥ2.2 (Calbiochem), Caᵥβ₃ (Alomone labs) antibodies were carried out essentially as described in. Brain, skeletal muscle and heart lysates were purchased from Zyagen Laboratories. In vitro synthesized BARP was produced by using the TNT quick coupled transcription/translation systems (Promega). For the dissociation experiments, an AID peptide ([…]) and a BARP domain I peptide ([…]) were synthesized (Mimotopes). […] After extensive wash to remove unassociated β₃-subunits, increasing concentration of peptide (30, 60, 300, 600 nM) were added. After an incubation of four hours, 10% of the supernatant containing the dissociated β₃-subunit were loaded on SDS-PAGE and subjected to Western blot analysis. […]

T1 sequence (P54287 whole entry): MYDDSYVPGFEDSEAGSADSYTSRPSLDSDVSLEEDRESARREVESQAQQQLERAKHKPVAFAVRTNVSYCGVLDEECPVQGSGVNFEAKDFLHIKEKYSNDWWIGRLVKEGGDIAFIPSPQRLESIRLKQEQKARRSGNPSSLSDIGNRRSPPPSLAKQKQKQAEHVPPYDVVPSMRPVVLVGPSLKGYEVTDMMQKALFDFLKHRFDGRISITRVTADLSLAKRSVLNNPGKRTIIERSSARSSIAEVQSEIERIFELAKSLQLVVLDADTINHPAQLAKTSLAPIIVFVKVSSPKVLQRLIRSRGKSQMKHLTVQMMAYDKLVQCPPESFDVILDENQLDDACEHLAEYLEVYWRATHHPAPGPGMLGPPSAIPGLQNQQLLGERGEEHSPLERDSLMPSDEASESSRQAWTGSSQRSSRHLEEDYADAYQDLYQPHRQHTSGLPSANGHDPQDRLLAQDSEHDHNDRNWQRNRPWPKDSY

B1: BARP domain I peptide (peptide)
peptide: SYRDLWSLRASLELHAATASD
notes: Synthesized by Mimotopes; also called AID-like BARP peptide
B1: binds.
